Key:
[1] = biological target: Respiratory Syncytial Virus fusion glycoprotein (RSV F) on RSV-A2 virus (Respiratory Syncytial Virus, UniProt P03420 26-574); experiment: cell-based or functional assay
[2] = biological target: RSV prefusion F (preF), DS-Cav1 (Respiratory Syncytial Virus, UniProt P03420 26-513); experiment: BLI (ForteBio Octet), IgG on anti-human IgG biosensors
[3] = biological target: RSV postfusion F (postF), F ΔFP (Respiratory Syncytial Virus, UniProt P03420 26-513); experiment: BLI (ForteBio Octet), IgG on anti-human IgG biosensors, 100 nM antigen, apparent (IgG) KD
[4] = biological target: T1, postF (RSV F ΔFP) with a C-terminal HRV 3C cleavage site, 8xHisTag and StrepTagII (Respiratory Syncytial Virus, UniProt P03420 26-109; P03420 147-513); experiment: SPR, postF captured on NTA chip, Fab in solution, steady-state fit
T1 construct: also called postfusion F; not shown: C-terminal HRV 3C cleavage site, 8xHisTag and StrepTagII

B1: ADI-43648 (antibody, V domains shown)
VH: EVQLVQSGAEVKKPGASVKVSCKASGYTFTSYDINWVRQATGQGLEWMGWMNPNSGNTGYAQKFQGRVTMTRNTSISTAYMELSSLRSEDTAVYYCATRPAALDYWGQGTLVTVSS
VL: QPVLTQPLSVSVALGQTARITCGGNNIGSKNVHWYQQKPGQAPVLIIYRDSNRPSGIPERFSGSNSGNTATLTISRAQAGDEADYYCQVWDSSTWVFGGGTKLTVL
Neutralization IC50 (RSV subtype A) [1]: > 25 µg/mL | binding result [2]: no binding | Kd [3]: 28.6 nM

B2: ADI-14359 R50L Fab (germline reverted variant) (Fab, V domains shown)
VH: QVQLVQSGPALVKPTQTLTLTCTFSGFSLSTSGMCVSWIRQPPGKALEWLALIDWDDDKYYSTSLKTRLTISKDTSKNQVVLTMTNMDPVDTATYYCARATNYDSSGYYSLYFDYWGQGTLVTVSS
VL: not shown
fold reduction in affinity relative to ADI-14359 Fab [4]: > 30 fold
